We go through five molecules from US20100105876A1, “Method for the oligomerisation of peptides” (priority 1996, published 2010).

For test [1], the target named is Pentabody Pab-S (peptide S - camel Ig hinge - modified COMP pentamerization domain - 6xHis, homopentamer) (UniProt P35444). In words: soluble BCL1 IgM competing the binding of Pab-S to BCL1 cells.
For test [2], the target named is BCL1 IgM idiotype. The test is described as follows: RIA competition on plastic: inhibition of 125I labeled B1 IgG binding to coated BCL1 IgM. Further details: species or system mouse. Here is the method:
RIA competition on plastic. Polyvinil 96-well plates are coated with BCL1 IgM at 3 μg/ml in PBS for 16 h at 4° C. and blocked with 2% MPBS for 1 h at 37° C. Different amounts of peptides are incubated with 10 nCi of ^125I labeled B1 IgG for 1 h at 37° C. The wells are washed with PBS containing 0.1% of Tween-20 and the amounts of radioactivity retained is measured with an automated multichannel Cobra II γ-counter.
Synthetic peptides corresponding to the selected sequences are prepared as outlined in Table 1. Cysteins containing peptide S is completely oxidized on air loosing two hydrogen atoms, as shown by Mass Spectroscopy, which is consistent with the cyclization of the peptide. All synthetic peptides are tested for binding inhibition of ^125I labeled B1 IgG to BCL1 IgM coated on plastic. The D and the S peptides inhibit binding with an IC50 of about 60 μM and 200 μM, respectively. No inhibition is seen with peptide F up to 2 mM, which is used, thereafter, as a negative control.
However, since spatial arrangement of target molecule on the surface may influence multivalent binding, the equilibrium binding parameters of Pab-S are determined directly on live BCL1 cells, which represent a more relevant biological surface. Purified Pab-S is labeled with ^125I and is shown to bind to BCL1 idiotype on the cell surface. […]

The target in test [3] is BCL1 soluble IgM (idiotype-bearing IgM purified from the serum of a mouse carrying the BCL1 B-cell lymphoma) (mouse). In words: RIA competition: peptide against 125I B1 IgG on BCL1 IgM coated on plastic.

Bridge positions count the residues as written; N and C are the ends. Ends that are not written are not given here.

Sequence of UniProt P35444 (P35444 other isoform, or with tags, fused parts or gaps): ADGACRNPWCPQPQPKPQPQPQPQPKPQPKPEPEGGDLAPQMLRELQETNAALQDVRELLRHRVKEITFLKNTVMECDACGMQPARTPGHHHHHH

For “BCL1 soluble IgM (idiotype-bearing IgM purified from the serum of a mouse carrying the BCL1 B-cell lymphoma) (antibody)”, the concentration for 80% displacement in test [1] came to 100 nM. SVWRWLPYDKYE: in test [2] (synthetic peptides, BCL1 IgM coated on plastic), the IC50 was about 60 µM. Turning to “peptide F: Synthetic peptide, first ten amino acids of the sequence selected from the Fisch library (SEQ ID 3); negative control (TAAGLCEFDQ; Synthetic peptide ligand specific for mouse BCL1 idiotype selected from peptide libraries dispalyed on filamentous bacteriophage displaying random hexapeptides or decapeptides)”, the “inhibition of 125I labeled B1 IgG binding to BCL1 IgM coated on plastic” value in test [2] (up to 2 mM peptide) is “No inhibition”. In test [3], ADGACRNPWC (disulfide 5-10 (inferred)) [synthetic peptide S (selected from the Smith library, oxidized/cyclized)] registered an IC50 of 200 µM. In test [3], SVWRWLPYDKYE [synthetic peptide D (selected from the Doorbar library)] displayed an IC50 of 60 µM.

In general, IC50 refers to the concentration that inhibits the measured activity by half.
